Data on two substances can be found in patent US20210238310A1.

Test [1] deals with FcγRIIIa, on Jurkat effector cells (UniProt P08637). In words: cell-based or functional assay.
Test [2] concerns the target human FcγRIIa-H variant (Histidine at amino acid 131), on Jurkat effector cells (human) (UniProt P12318). In words: cell-based or functional assay.

Chain of FcγRIIIa, on Jurkat effector cells (P08637 17-254 limits assumed): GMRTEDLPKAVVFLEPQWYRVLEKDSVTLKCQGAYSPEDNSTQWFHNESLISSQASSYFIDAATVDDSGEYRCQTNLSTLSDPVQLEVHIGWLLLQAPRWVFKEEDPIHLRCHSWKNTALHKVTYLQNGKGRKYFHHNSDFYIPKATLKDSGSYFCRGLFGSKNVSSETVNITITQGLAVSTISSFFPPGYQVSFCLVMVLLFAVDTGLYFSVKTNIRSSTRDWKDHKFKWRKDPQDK
Chain of human FcγRIIa-H variant (Histidine at amino acid 131), on Jurkat effector cells (human) (P12318 34-317, change not shown): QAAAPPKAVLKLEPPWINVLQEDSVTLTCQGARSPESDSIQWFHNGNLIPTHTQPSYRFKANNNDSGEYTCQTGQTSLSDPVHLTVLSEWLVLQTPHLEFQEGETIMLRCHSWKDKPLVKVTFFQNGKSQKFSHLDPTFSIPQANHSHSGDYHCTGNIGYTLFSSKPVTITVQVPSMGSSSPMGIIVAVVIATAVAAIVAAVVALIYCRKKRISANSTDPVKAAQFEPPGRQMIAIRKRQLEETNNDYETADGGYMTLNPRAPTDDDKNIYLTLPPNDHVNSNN

In test [1], “avelumab monoclonal antibody, fucosylated” returned an EC50 (nM), Mean; FcγRIIIa signaling in an ADCC reporter assay (luciferase, HEK-PD-L1 target cells) of 0.049 nM. With “obinutuzumab monoclonal antibody, fucosylated”, the EC50 (nM), Mean; FcγRIIIa signaling in an ADCC reporter assay (luciferase, Raji target cells) in test [1] worked out at 0.08 nM. The substance further returned an EC50 (nM), Mean; FcγRIIa signaling in an ADCP reporter assay (luciferase, Raji target cells) in test [2] of 7.1 nM.
